Measurements from the supplement of paper PMC9112550, “Optimization of the antimicrobial peptide Bac7 by deep mutational scanning” (BMC Biology, 2022).

What follows are sequences tested on Escherichia coli TOP10 (assay: shrunken log2 fold change of peptide-encoding DNA abundance (4.5 h post-induction vs induction); higher = less antimicrobial activity (less host growth inhibition)). Settings: time post-induction: 4.5 h; library: site-saturation at positions 5, 18, 19, 20.
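Also: peptides expressed intracellularly from a pBAD plasmid library in pooled LB shake-flask culture, induced with 0.3% L-arabinose, DNA abundance read by NGS, three biological replicates, DESeq2 with apeglm shrinkage.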

Row | Sequence | shrunken log2 fold change
1 | RRIRERPPRLPRPRPRPPKVPRP | -0.0931
2 | RRIRARPPRLPRPRPRPTNGPRP | -0.0688
3 | RRIRHRPPRLPRPRPRPSFWPRP | 0.00023
4 | RRIRKRPPRLPRPRPRPIERPRP | 0.11
5 | RRIRWRPPRLPRPRPRPIQCPRP | -0.0122
6 | RRIRHRPPRLPRPRPRPMHSPRP | 0.0758
7 | RRIRERPPRLPRPRPRPYCCPRP | -0.899
8 | RRIRKRPPRLPRPRPRPINRPRP | -0.159
9 | RRIRGRPPRLPRPRPRPFGFPRP | 0.828
10 | RRIRTRPPRLPRPRPRPESQPRP | -0.0324
11 | RRIRERPPRLPRPRPRPAWGPRP | -0.00226
12 | RRIRSRPPRLPRPRPRPINRPRP | -0.225
13 | RRIRFRPPRLPRPRPRPEAQPRP | 0.383
14 | RRIRKRPPRLPRPRPRPYCVPRP | -0.382
15 | RRIRIRPPRLPRPRPRPCGRPRP | 0.0552
16 | RRIRTRPPRLPRPRPRPFIFPRP | -0.447
17 | RRIRARPPRLPRPRPRPTMCPRP | -0.198
18 | RRIRQRPPRLPRPRPRPTVAPRP | 0.118
19 | RRIRMRPPRLPRPRPRPPHDPRP | 1.47
20 | RRIRVRPPRLPRPRPRPRMAPRP | 0.199
21 | RRIRSRPPRLPRPRPRPMEKPRP | -0.0205
22 | RRIRNRPPRLPRPRPRPMHEPRP | 0.0425
23 | RRIRVRPPRLPRPRPRPHRKPRP | 0.164

Row | Sequence | shrunken log2 fold change
24 | RRIRLRPPRLPRPRPRPLSIPRP | -0.722
25 | RRIRSRPPRLPRPRPRPYSYPRP | -0.393
26 | RRIRMRPPRLPRPRPRPQYGPRP | 0.015
27 | RRIRWRPPRLPRPRPRPKRFPRP | 0.729
28 | RRIRGRPPRLPRPRPRPATLPRP | 0.393
29 | RRIRYRPPRLPRPRPRPNLVPRP | -0.0754
30 | RRIRIRPPRLPRPRPRPVEMPRP | -0.299
31 | RRIRVRPPRLPRPRPRPQAQPRP | 0.173
32 | RRIRTRPPRLPRPRPRPSDMPRP | 0.185
33 | RRIRDRPPRLPRPRPRPAMHPRP | 0.527
34 | RRIRKRPPRLPRPRPRPLKWPRP | 0.18
35 | RRIRKRPPRLPRPRPRPDIHPRP | 0.167
36 | RRIRDRPPRLPRPRPRPHCVPRP | 0.017
37 | RRIRIRPPRLPRPRPRPDNMPRP | -0.25
38 | RRIRMRPPRLPRPRPRPRAWPRP | 0.32
39 | RRIRNRPPRLPRPRPRPYYFPRP | -0.695
40 | RRIRIRPPRLPRPRPRPAFEPRP | -0.117
41 | RRIRARPPRLPRPRPRPDMYPRP | -0.0823
42 | RRIRCRPPRLPRPRPRPMTYPRP | -0.185
43 | RRIRTRPPRLPRPRPRPRTAPRP | 2.87
44 | RRIRDRPPRLPRPRPRPKCLPRP | 0.313
45 | RRIRFRPPRLPRPRPRPNQTPRP | 0.275
46 | RRIRSRPPRLPRPRPRPHHPPRP | -0.369

Row | Sequence | shrunken log2 fold change
47 | RRIRARPPRLPRPRPRPDWFPRP | 0.408
48 | RRIRVRPPRLPRPRPRPPPHPRP | 0.676
49 | RRIRCRPPRLPRPRPRPATKPRP | 0.0383
50 | RRIRHRPPRLPRPRPRPFKFPRP | -0.376
51 | RRIRYRPPRLPRPRPRPLKHPRP | -1.82
52 | RRIRTRPPRLPRPRPRPMMVPRP | -0.18
53 | RRIRMRPPRLPRPRPRPAKNPRP | 0.816
54 | RRIRGRPPRLPRPRPRPTGNPRP | 0.452
55 | RRIRHRPPRLPRPRPRPPVKPRP | 0.0106
56 | RRIRYRPPRLPRPRPRPDCCPRP | -0.115
57 | RRIRPRPPRLPRPRPRPWDMPRP | -0.0229
58 | RRIRYRPPRLPRPRPRPQGAPRP | -0.238
59 | RRIRLRPPRLPRPRPRPCTMPRP | -0.152
60 | RRIRPRPPRLPRPRPRPTQYPRP | 0.287
61 | RRIRVRPPRLPRPRPRPAYEPRP | 0.0112
62 | RRIRCRPPRLPRPRPRPYTCPRP | -0.794
63 | RRIRNRPPRLPRPRPRPRMYPRP | -0.613
64 | RRIRCRPPRLPRPRPRPVQPPRP | 0.455
65 | RRIRMRPPRLPRPRPRPNFYPRP | -0.00797
66 | RRIRIRPPRLPRPRPRPISSPRP | -0.16
67 | RRIRSRPPRLPRPRPRPVSQPRP | -0.0165
68 | RRIRVRPPRLPRPRPRPTRCPRP | 0.404
69 | RRIRERPPRLPRPRPRPILPPRP | -0.182

Row | Sequence | shrunken log2 fold change
70 | RRIRWRPPRLPRPRPRPWAFPRP | 0.044
71 | RRIRERPPRLPRPRPRPMAMPRP | 0.0346
72 | RRIRARPPRLPRPRPRPQRPPRP | 0.517
73 | RRIRRRPPRLPRPRPRPQEVPRP | -0.00192
74 | RRIRHRPPRLPRPRPRPQEDPRP | -0.106
75 | RRIRPRPPRLPRPRPRPEGMPRP | 0.305
76 | RRIRGRPPRLPRPRPRPETMPRP | 1.14
77 | RRIRVRPPRLPRPRPRPYWTPRP | -0.366
78 | RRIRRRPPRLPRPRPRPIYNPRP | -0.246
79 | RRIRDRPPRLPRPRPRPISTPRP | -0.146
80 | RRIRARPPRLPRPRPRPLASPRP | 0.841
81 | RRIRERPPRLPRPRPRPLYDPRP | -1.62
82 | RRIRERPPRLPRPRPRPEIAPRP | -0.0389
83 | RRIRIRPPRLPRPRPRPCTDPRP | -0.143
84 | RRIRGRPPRLPRPRPRPYTRPRP | -0.0484
85 | RRIRARPPRLPRPRPRPMFGPRP | 0.215
86 | RRIRPRPPRLPRPRPRPFLGPRP | -0.0178
87 | RRIRCRPPRLPRPRPRPDLCPRP | -0.047
88 | RRIRERPPRLPRPRPRPTFMPRP | -0.157
89 | RRIRIRPPRLPRPRPRPGHGPRP | -0.062
90 | RRIRWRPPRLPRPRPRPFQNPRP | -0.235
91 | RRIRTRPPRLPRPRPRPQMIPRP | -0.346
